In assay [1] the target is CytERM-EGFP (not stated | Aequorea victoria) (UniProt P00180).
Assay [2] has as its target CytERM-TagRFP (UniProt P00180).

As to CytERM-EGFP (from UniProt P00180 1-29), the OSER assay: average structure area, U2OS cells in assay [1] was 8.7 μm^2.

Regarding “CytERM-TagRFP (from UniProt P00180 1-29)”, in assay [2], the OSER assay: ratio of structure MFI to nuclear envelope MFI, U2OS cells turned out to be 3.9.

The values are drawn from PMC3324619.
